The results in this text go back to patent US20190359693A1 (Janssen / Centocor, published 2019).

Assay [1] concerns the target T1, HA of H3N2 A/HK/1/68 (influenza A virus, UniProt Q91MA7 17-530). In words: BLI (Octet). For orientation: BLI is a label-free optical method that tracks binding on a fibre tip over time.
The target of assay [2] is T1, HA of H3N2 A/HK/1/68. Briefly: cell-based or functional assay.
Assay [3] deals with HA of H4 A/WF/HK/MPA892/06 (influenza A virus). Briefly: cell-based or functional assay.
For assay [4], the target named is HA of H7N7 A/PR8 H7N7-NY (influenza A virus). Briefly: cell-based or functional assay.
The target of assay [5] is HA of H10N7 A/Chick/Germany/N/49 (influenza A virus). In words: cell-based or functional assay.
Assay [6] has as its target HA of B/Malaysia/2506/04 (Victoria) (influenza B virus). Briefly: cell-based or functional assay.
In assay [7] the target is HA of B/Harbin/7/94 (Yamagata) (influenza B virus). In words: cell-based or functional assay.
In assay [8] the target is T2, HA of B/Lee/40 (influenza B virus, UniProt P03460 16-552). In words: cell-based or functional assay.
The target of assay [9] is HA of B/Harbin/7/94 (Yamagata) (influenza B virus). Briefly: cell-based or functional assay. The source holds these as a separate data set.
Assay [10] concerns the target HA of H5N1 A/Vietnam/1194/04 (influenza A virus). Briefly: cell-based or functional assay.
The target of assay [11] is T2, HA of B/Lee/40. In words: cell-based or functional assay. This is another data set of the same source.
Assay [12] has as its target HA of H5N1 A/Vietnam/1194/04 (influenza A virus). Briefly: cell-based or functional assay. The source holds these as a separate data set.
The target in assay [13] is HA of H3N2 A/Brisbane/10/2007 (influenza A virus). Briefly: cell-based or functional assay.
In assay [14] the target is HA of H1N1 A/Puerto Rico/8/34-MA (influenza A virus). Briefly: cell-based or functional assay.
Assay [15] deals with HA of H3N2 A/HK/1/68-MA (influenza A virus). In words: cell-based or functional assay.
Assay [16] deals with HA of H7N7 A/Netherlands/219/2003 (influenza A virus, UniProt P36346 19-563). In words: AlphaLISA competition vs CR9114. For orientation: Bead proximity is the source of the signal in Alpha formats.
In assay [17] the target is HA of H3N2 A/HK/1/68-MA (influenza A virus). In words: cell-based or functional assay. The source holds these as a separate data set.
Assay [18] addresses HA of H2N2 A/Guiyang/1/57 (influenza A virus). In words: cell-based or functional assay.
Assay [19] deals with HA of H2N2 A/WF/HK/MPU3156/05 (influenza A virus). Briefly: cell-based or functional assay.
Assay [20] deals with HA of H4 A/WF/HK/MPA892/06 (influenza A virus). Briefly: cell-based or functional assay. The source holds these as a separate data set.
Assay [21] has as its target HA of H10N7 A/Chick/Germany/N/49 (influenza A virus). Briefly: cell-based or functional assay. This is another data set of the same source.
In assay [22] the target is HA of H7N9 A/Anhui/1/13 (influenza A virus). Briefly: cell-based or functional assay.
Assay [23] addresses HA of H5N1 A/PR8 H5N1 HK97 (influenza A virus). In words: cell-based or functional assay.
The target in assay [24] is T1, HA of H3N2 A/HK/1/68. In words: cell-based or functional assay. The source holds these as a separate data set.
In assay [25] the target is HA of H3N2 A/Wisconsin/67/2005 (influenza A virus). In words: cell-based or functional assay.
Assay [26] addresses HA of H3N2 A/Panama/2007/99 (influenza A virus). In words: cell-based or functional assay.
Assay [27] deals with HA of H4 A/WF/HK/MPA892/06 (influenza A virus). In words: cell-based or functional assay. This is another data set of the same source.
In assay [28] the target is HA of H7N7 A/PR8 H7N7-NY (influenza A virus). Briefly: cell-based or functional assay. This is another data set of the same source.
In assay [29] the target is HA of H10N7 A/Chick/Germany/N/49 (influenza A virus). Briefly: cell-based or functional assay. This is another data set of the same source.

Where two headings read alike, the source gives them in different places. A value given as a limit tells only on which side of the number the result lay.

B1: SD1045 (VHH)
VHH: EVQLVESGGGLVQAGGSLRLSCAASGSSFSINVMGWYRQAPGKQREMVATITYGGSTNYVDSVKGRFTISRDNAKNTVYLQMNSLKPEDTAVYYCNSRLAQINYWGQGTQVTVSS
notes: llama sdAb
Regarding B1, in assay [1], the binding result was “no binding (tested: HA 20 µg/mL)”. Moreover, the VNA titer was greater than 1000 nM in assay [2], 492 nM in assay [3], greater than 1000 nM in assay [4] and 985 nM in assay [5].

B2: SD1083 (VHH)
VHH: EVQLVESGGGLVQPGGSLRLSCAATGFTLENKAIGWFRQTPGSEREGVLCISKSGSWTYYTDSMRGRFTISRDNAENTVYLQMDSLKPEDTAVYYCATTTAGGGLCWDGTTFSRLASSWGQGTQVTVSS
With B2, the values for the VNA titer in [6], in assay [7] and in [8] were 294 nM, 259 nM and 217 nM, respectively. The hemagglutination inhibition titer in assay [9], in assay [10] and in [11] was greater than 50 µg/mL in each case.

B3: SD1035 (VHH)
VHH: EVQLVESGGGLVQAGGTLRLSCAASGSAVSISRMAWYRQAPGKQRELVADIFSGGGTNYADSVKGRFTISRDNAKNTVDLQMNSLKPEDTAVYYCSARSAVAAIHWDQYDYWGQGTQVTVSS
notes: llama sdAb
As for B3, the binding result in [1] is recorded as “no binding (tested: HA 20 µg/mL)”. The VNA titer in assay [12] and in assay [13] was greater than 1000 nM each time.

B4: SD1014 (VHH)
VHH: EVQLVESGGGLVQAGGSLTLSCAASGRTYAMAWFRQAPGKEREFVAHINALGTRTYYSDSVKGRFTISRDNAKNTEYLQMNSLNPEDTAVYYCAAGGQWRAAPVADAAQYDFWGQGTQVTVSS
notes: llama sdAb
As usually defined, the pIC50 is −log10 of the IC50, conventionally taken in molar units. Low values mean a high IC50, high ones a low IC50. For B4, the VNA titer in assay [14] and in [15] was greater than 1000 nM in each case. In [16], this molecule came in with a negative-log IC50 (pIC50) of 9.2.

B5: SD1076 (VHH)
VHH: EVQLVESGGGLVQAGGSLTLSCAGSGFAFSIATMGWYRQAPGKQRELVADITSGGSTNYADSVKGRFTISRDNAKNTVYLQMNSLKPEDTAVYYCNADSLATGWRQYSYWGKGTQVTVSS
notes: llama sdAb
For B5, the binding result in [1] was “no binding (tested: HA 20 µg/mL)”. Further, the VNA titer in [17] was greater than 1000 nM; in assay [18], greater than 1000 nM; in [19], 38.5 nM; in [20] it was greater than 1000 nM; in assay [21], greater than 1000 nM.

B6: SD1087 (VHH)
VHH: EVQLVESGGGLVQPGGSLRLSCVISGLSLDTYAVGWFRQAPGKEREGITCISSGHGMTYYADSVKGRFTVSTDNAKNTVYLQMNGLQPEDTARYYCATESRYYCSDNWPAPQRYIYWGQGTQVTVSS
Take B6: the VNA titer in assay [6] came out at 79.1 nM; in assay [7], 503 nM; in assay [8], 6.5 nM. Moreover, the hemagglutination inhibition titer in assay [9], in assay [10] and in assay [11] was greater than 50 µg/mL throughout.

B7: SD1046 (VHH)
VHH: EVQLVESGGGLVQAGDSLRISCAASGRTLSIYSMGWFRQAPGKEREFVATIGWNSGRTFYPDSLKGRFTISRDNARNTLYLQMNNLRPEDTAVYYCAAAKGPLRLSSQADYWGQGTQVTVSS
On to B7, for which the VNA titer was 46.1 nM in assay [22]; greater than 1000 nM in assay [14]; greater than 1000 nM in [23]; 26.4 nM in assay [15]; 202 nM in assay [24]; greater than 1000 nM in assay [25]. Also, the VNA titer in assay [26] is greater than 1000 nM; in assay [27], 34.3 nM; in [28], 25.9 nM; in [29], 34.3 nM.
